Experimental data from paper PMC6351632.

Target: Fasciola hepatica Sigma class glutathione transferase 1 (Fasciola hepatica)
Test: crystal structure; FhGST-S1 with glutathione (holo/CGL and GSSG complexes), microbatch, 0.15 M KBr, 20% PEG 3350; space group P212121, two subunits forming a dimer related by a molecular dyad

stoichiometry N: 2
Substance: Fasciola hepatica Sigma class glutathione transferase 1 (enzyme)
